Measurements reported in article PMC3352088, “Structure and function of the transketolase from Mycobacterium tuberculosis and comparison with the human enzyme” (Open Biology, 2012).

B1: transketolase from Mycobacterium tuberculosis (TBTKT) (enzyme)
chain: MTTLEEISALTRPRHPDYWTEIDSAAVDTIRVLAADAVQKVGNGHPGTAMSLAPLAYTLFQRTMRHDPSDTHWLGRDRFVLSAGHSSLTLYIQLYLGGFGLELSDIESLRTWGSKTPGHPEFRHTPGVEITTGPLGQGLASAVGMAMASRYERGLFDPDAEPGASPFDHYIYVIASDGDIEEGVTSEASSLAAVQQLGNLIVFYDRNQISIEDDTNIALCEDTAARYRAYGWHVQEVEGGENVVGIEEAIANAQAVTDRPSFIALRTVIGYPAPNLMDTGKAHGAALGDDEVAAVKKIVGFDPDKTFQVREDVLTHTRGLVARGKQAHERWQLEFDAWARREPERKALLDRLLAQKLPDGWDADLPHWEPGSKALATRAASGAVLSALGPKLPELWGGSADLAGSNNTTIKGADSFGPPSISTKEYTAHWYGRTLHFGVREHAMGAILSGIVLHGPTRAYGGTFLQFSDYMRPAVRLAALMDIDTIYVWTHDSIGLGEDGPTHQPIEHLSALRAIPRLSVVRPADANETAYAWRTILARRNGSGPVGLILTRQGVPVLDGTDAEGVARGGYVLSDAGGLQPGEEPDVILIATGSEVQLAVAAQTLLADNDILARVVSMPCLEWFEAQPYEYRDAVLPPTVSARVAVEAGVAQCWHQLVGDTGEIVSIEHYGESADHKTLFREYGFTAEAVAAAAERALDN
notes: also called Rv1449; rv1449c gene product

Tests used:
[1] = test system: O=C(CO)[C@@H](O)[C@H](O)COP(=O)(O)O; assay: purified protein; conditions: TPP, Mg2+ donor substrate; substrate cleft
[2] = test system: O=C(CO)[C@@H](O)[C@H](O)[C@H](O)COP(=O)(O)O; assay: purified protein; conditions: TPP, Mg2+ donor substrate; substrate cleft
[3] = test system: O=C[C@H](O)[C@H](O)[C@H](O)COP(=O)(O)O; assay: purified protein; conditions: TPP, Mg2+ acceptor substrate; substrate cleft
[4] = target: the molecule itself; assay: crystal structure; TBTKT with TPP and Mg2+, space group P1, four molecules (two dimers) in the asymmetric unit, 2.5 Å; crystals from 0.1 M ammonium acetate, 0.1 M bis-tris pH 5.5, 17% w/v PEG 10 000, 22°C

| Molecule | Km [1] [µM] | Km [2] [µM] | Km [3] [µM] | stoichiometry N [4] |
| --- | --- | --- | --- | --- |
| transketolase (TBTKT) (Mycobacterium tuberculosis H37Rv) | 350 ± 120 | 630 ± 90 | 820 ± 120 |  |
| B1 |  |  |  | 2 |
